According to US6436654:

Columns and labels:
Assay in all cases: cell-based or functional assay
[1] = target: GAL4/HIF 1-813 (human)
[2] = target: human HIF-1α (human) (UniProt Q16665)
[3] = target: GAL4/HIF 1-826 (human)
[4] = target: GAL4/HIF 776-826 (human)
[5] = target: GAL4/HIF 526-826 (human)
[6] = target: GAL4/HIF 71-826 (human)
[7] = target: GFP-HIF-1α (Aequeora victoria; human) [GFP: P42212]
[8] = target: GAL4/HIF 531-584 (human)
[9] = target: GAL4/Arnt 128-774 (UniProt P04386)
[10] = target: GAL4/Arnt 128-603 (UniProt P04386)

Sequence of human HIF-1α (human) (Q16665 whole entry, the tested form may be a part): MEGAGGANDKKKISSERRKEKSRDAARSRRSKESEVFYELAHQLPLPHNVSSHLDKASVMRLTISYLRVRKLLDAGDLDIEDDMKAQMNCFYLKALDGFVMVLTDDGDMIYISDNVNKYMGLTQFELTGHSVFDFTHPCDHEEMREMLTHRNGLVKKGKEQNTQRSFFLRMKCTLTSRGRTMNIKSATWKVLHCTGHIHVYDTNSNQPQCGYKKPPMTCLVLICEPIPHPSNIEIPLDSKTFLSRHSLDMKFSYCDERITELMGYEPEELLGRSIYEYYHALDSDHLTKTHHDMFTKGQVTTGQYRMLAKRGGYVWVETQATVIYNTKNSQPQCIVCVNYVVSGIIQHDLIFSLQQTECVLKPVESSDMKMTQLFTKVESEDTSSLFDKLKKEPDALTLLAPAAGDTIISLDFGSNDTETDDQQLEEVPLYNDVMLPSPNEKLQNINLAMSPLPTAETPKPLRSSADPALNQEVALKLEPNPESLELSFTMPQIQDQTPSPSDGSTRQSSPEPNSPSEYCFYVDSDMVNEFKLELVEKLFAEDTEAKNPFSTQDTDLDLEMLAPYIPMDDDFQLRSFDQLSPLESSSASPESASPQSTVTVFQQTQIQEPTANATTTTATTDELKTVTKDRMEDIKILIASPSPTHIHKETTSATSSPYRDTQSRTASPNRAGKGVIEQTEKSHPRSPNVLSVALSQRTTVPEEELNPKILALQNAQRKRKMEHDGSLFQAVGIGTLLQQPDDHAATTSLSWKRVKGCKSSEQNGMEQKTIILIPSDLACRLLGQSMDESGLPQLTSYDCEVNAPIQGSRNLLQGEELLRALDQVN

**Q.** What does the source list for “CBP (full-length mouse CBP) (from UniProt P45481 1-2441)”?
**A.** GAL4-responsive reporter gene activity in COS7 cells, hypoxia [1]: 14 fold; pT81/HRE-luc reporter gene activity in COS7 cells coexpressing HIF-1α and Arnt, hypoxia [2]: 2 to 3 fold; GAL4-responsive luciferase reporter gene activity in COS7 cells, hypoxia [3]: 19 fold; GAL4-responsive luciferase reporter gene activity in COS7 cells, normoxia [3]: 2 to 3 fold; GAL4-responsive reporter gene activity in COS7 cells, hypoxia [3]: 8 to 10 fold; GAL4-responsive reporter gene activity in COS7 cells [4]: 29 fold; GAL4-responsive reporter gene activity in COS7 cells [5]: 7 to 9 fold; GAL4-responsive luciferase activity in COS7 cells, hypoxia, against hypoxia without exogenous coactivators [6]: 30 fold; HRE-luciferase reporter gene activity in COS7 cells, hypoxia [7]: 3 fold; HRE-luciferase reporter gene activity in COS7 cells, hypoxia over normoxia [7]: 15 fold; GAL4-responsive reporter gene activity in COS7 cells, hypoxia [8]: 11 fold

**Q.** How did the GAL4-responsive reporter gene activity in COS7 cells, hypoxia, Ref-1 coexpressed with CBP and SRC-1 [4] turn out when “Ref-1 (from UniProt P27695 1-318) (enzyme)” was run?
**A.** The GAL4-responsive reporter gene activity in COS7 cells, hypoxia, Ref-1 coexpressed with CBP and SRC-1 was 53 fold.

**Q.** What about the GAL4-responsive reporter gene activity in COS7 cells, hypoxia, Ref-1 coexpressed with CBP and SRC-1 [8] of the same substance?
**A.** Its GAL4-responsive reporter gene activity in COS7 cells, hypoxia, Ref-1 coexpressed with CBP and SRC-1 is 12 fold.

**Q.** How did the pT81/HRE-luc reporter gene activity in COS7 cells coexpressing HIF-1α and Arnt, hypoxia over normoxia [2] turn out when TIF2 (from UniProt Q15596 1-1464) was run?
**A.** The pT81/HRE-luc reporter gene activity in COS7 cells coexpressing HIF-1α and Arnt, hypoxia over normoxia was 12 fold.

**Q.** What does the source list for “human HIF-1α (from UniProt Q16665 1-826)”?
**A.** GAL4-responsive reporter gene activity in COS7 cells, normoxia [9]: 4 fold; GAL4-responsive reporter gene activity in COS7 cells, normoxia [10]: 5 fold
